One experiment addresses T1, human CD3ε (human, UniProt P07766 23-207).
T1 construct: whole, on cells; Present on cells as part of the CD3/TCR complex; also called CD3 epsilon
The experiment in a line: flow cytometry, HUT-78 cells. For orientation: A flow cytometer gives signals particle by particle.

The target in experiment [1] is T2, human CEACAM5 (carcinoembryonic antigen, CEA), cell surface (human, UniProt P06731 35-685).
T2 construct: whole, on cells; also called CD66e
T2 sequence (looked up): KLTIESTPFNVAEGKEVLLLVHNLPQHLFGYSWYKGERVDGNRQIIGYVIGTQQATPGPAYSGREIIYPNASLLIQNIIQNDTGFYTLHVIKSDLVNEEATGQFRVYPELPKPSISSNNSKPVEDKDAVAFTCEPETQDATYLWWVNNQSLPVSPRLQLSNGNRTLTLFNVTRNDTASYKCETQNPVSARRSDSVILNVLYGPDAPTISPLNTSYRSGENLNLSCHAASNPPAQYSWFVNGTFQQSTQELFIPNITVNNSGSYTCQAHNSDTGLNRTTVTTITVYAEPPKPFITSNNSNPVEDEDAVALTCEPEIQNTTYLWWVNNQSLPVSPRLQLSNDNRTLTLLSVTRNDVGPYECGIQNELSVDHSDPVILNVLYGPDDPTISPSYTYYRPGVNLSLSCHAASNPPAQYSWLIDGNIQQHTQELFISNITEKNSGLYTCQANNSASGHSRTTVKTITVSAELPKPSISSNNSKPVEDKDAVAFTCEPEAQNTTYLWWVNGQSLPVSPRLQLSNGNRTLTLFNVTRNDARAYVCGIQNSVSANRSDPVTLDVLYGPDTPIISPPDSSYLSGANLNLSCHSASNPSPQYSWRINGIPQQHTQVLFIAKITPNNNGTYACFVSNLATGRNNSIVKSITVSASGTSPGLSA
Kind of experiment: flow cytometry, MKN-45 and/or HPAF-II cells.

Bounds are passed on as bounds.

T1 sequence (P07766 23-207): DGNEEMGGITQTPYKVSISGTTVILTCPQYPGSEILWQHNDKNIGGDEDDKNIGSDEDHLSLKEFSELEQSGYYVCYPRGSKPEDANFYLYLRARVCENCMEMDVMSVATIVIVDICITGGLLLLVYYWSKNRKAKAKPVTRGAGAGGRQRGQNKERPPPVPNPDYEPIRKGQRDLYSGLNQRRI

B1: AB13L3-1/N (bispecific antibody, human IgG1, kappa, lambda, L234A L235A)
heavy: EVQLVESGGGLVQPGGSLKLSCAASGFTFNTYAMNWVRQAPGKGLEWVGRIRSKYNNYATYYADSVKDRFTISRDDSKNTAYLQMNSLKTEDTAVYYCVRHGNFGNSYVSWFAYWGQGTLVTVSSASTKGPSVFPLAPSSKSTSGGTAALGCLVKDYFPEPVTVSWNSGALTSGVHTFPAVLQSSGLYSLSSVVTVPSSSLGTQTYICNVNHKPSNTKVDKRVEPKSCDKTHTCPPCPAPEAAGGPSVFLFPPKPKDTLMISRTPEVTCVVVDVSHEDPEVKFNWYVDGVEVHNAKTKPREEQYNSTYRVVSVLTVLHQDWLNGKEYKCKVSNKALAAPIEKTISKAKGQPREPQVYTLPPSREEMTKNQVSLTCLVKGFYPSDIAVEWESNGQPENNYKTTPPVLDSDGSFFLYSKLTVDKSRWQQGNVFSCSVMHEALHNHYTQKSLSLSPG
light 1: EIVLTQSPATLSLSPGERATLSCRASQSVNSNLNWYQQKPGQAPRLLIYHGSNRATGIPARFSGSGSGTDFTLTISSLEPEDFAVYYCQQFDYFMNKNTFGQGTKVEIKRTVAAPSVFIFPPSDEQLKSGTASVVCLLNNFYPREAKVQWKVDNALQSGNSQESVTEQDSKDSTYSLSSTLTLSKADYEKHKVYACEVTHQGLSSPVTKSFNRGEC
light 2: QTVVTQEPSLTVSPGGTVTLTCRSSTGAVTTSNYANWFQQKPGQAPRGLIGGTNKRAPGTPARFSGSLLGGKAALTLSGAQPEDEAEYYCALWYKQRWVFGGGTKLTVLGQPKAAPSVTLFPPSSEELQANKATLVCLISDFYPGAVTVAWKADSSPVKAGVETTTPSKQSNNKYAASSYLSLTPEQWKSHRSYSCQVTHEGSTVEKTVAPTECS
notes: Kappa-lambda body, lead optimization wave 1
Consider B1, for which the binding result with human CD3ε was “binds”. In addition, the “binding higher than TCB2014 (at 100 nM)” value in experiment [1] is not below 40%.

B2: AB15L3-1/N (bispecific antibody, human IgG1, kappa, lambda, L234A L235A)
heavy: EVQLVESGGGLVQPGGSLKLSCAASGFTFNTYAMNWVRQAPGKGLEWVGRIRSKYNNYATYYADSVKDRFTISRDDSKNTAYLQMNSLKTEDTAVYYCVRHGNFGNSYVSWFAYWGQGTLVTVSSASTKGPSVFPLAPSSKSTSGGTAALGCLVKDYFPEPVTVSWNSGALTSGVHTFPAVLQSSGLYSLSSVVTVPSSSLGTQTYICNVNHKPSNTKVDKRVEPKSCDKTHTCPPCPAPEAAGGPSVFLFPPKPKDTLMISRTPEVTCVVVDVSHEDPEVKFNWYVDGVEVHNAKTKPREEQYNSTYRVVSVLTVLHQDWLNGKEYKCKVSNKALAAPIEKTISKAKGQPREPQVYTLPPSREEMTKNQVSLTCLVKGFYPSDIAVEWESNGQPENNYKTTPPVLDSDGSFFLYSKLTVDKSRWQQGNVFSCSVMHEALHNHYTQKSLSLSPG
light 1: EIVLTQSPATLSLSPGERATLSCRASQTVNNNLNWYQQKPGQSPRLLIYYASNRATGIPARFSGSGSGTDFTLTISSLEPEDFAVYYCQQFNYHHEHNTFGQGTKVEIKRTVAAPSVFIFPPSDEQLKSGTASVVCLLNNFYPREAKVQWKVDNALQSGNSQESVTEQDSKDSTYSLSSTLTLSKADYEKHKVYACEVTHQGLSSPVTKSFNRGEC
light 2: QTVVTQEPSLTVSPGGTVTLTCRSSTGAVTTSNYANWFQQKPGQAPRGLIGGTNKRAPGTPARFSGSLLGGKAALTLSGAQPEDEAEYYCALWYKQRWVFGGGTKLTVLGQPKAAPSVTLFPPSSEELQANKATLVCLISDFYPGAVTVAWKADSSPVKAGVETTTPSKQSNNKYAASSYLSLTPEQWKSHRSYSCQVTHEGSTVEKTVAPTECS
notes: as for B1
B2: the binding result with human CD3ε is listed as “binds”. In experiment [1], the “binding higher than TCB2014 (at 100 nM)” value was not below 40%.

B3: AB14L3-1/N (bispecific antibody, human IgG1, kappa, lambda, L234A L235A)
heavy: EVQLVESGGGLVQPGGSLKLSCAASGFTFNTYAMNWVRQAPGKGLEWVGRIRSKYNNYATYYADSVKDRFTISRDDSKNTAYLQMNSLKTEDTAVYYCVRHGNFGNSYVSWFAYWGQGTLVTVSSASTKGPSVFPLAPSSKSTSGGTAALGCLVKDYFPEPVTVSWNSGALTSGVHTFPAVLQSSGLYSLSSVVTVPSSSLGTQTYICNVNHKPSNTKVDKRVEPKSCDKTHTCPPCPAPEAAGGPSVFLFPPKPKDTLMISRTPEVTCVVVDVSHEDPEVKFNWYVDGVEVHNAKTKPREEQYNSTYRVVSVLTVLHQDWLNGKEYKCKVSNKALAAPIEKTISKAKGQPREPQVYTLPPSREEMTKNQVSLTCLVKGFYPSDIAVEWESNGQPENNYKTTPPVLDSDGSFFLYSKLTVDKSRWQQGNVFSCSVMHEALHNHYTQKSLSLSPG
light 1: EIVLTQSPATLSLSPGERATLSCRASQSVNSNLNWYQQKPGQAPRLLIYHGSNRATGIPARFSGSGSGTDFTLTISSLEPEDFAVYYCQQFDYFRESNTFGQGTKVEIKRTVAAPSVFIFPPSDEQLKSGTASVVCLLNNFYPREAKVQWKVDNALQSGNSQESVTEQDSKDSTYSLSSTLTLSKADYEKHKVYACEVTHQGLSSPVTKSFNRGEC
light 2: QTVVTQEPSLTVSPGGTVTLTCRSSTGAVTTSNYANWFQQKPGQAPRGLIGGTNKRAPGTPARFSGSLLGGKAALTLSGAQPEDEAEYYCALWYKQRWVFGGGTKLTVLGQPKAAPSVTLFPPSSEELQANKATLVCLISDFYPGAVTVAWKADSSPVKAGVETTTPSKQSNNKYAASSYLSLTPEQWKSHRSYSCQVTHEGSTVEKTVAPTECS
notes: as for B1
With B3, the binding result in the experiment with human CD3ε is “binds”. Also, the “binding higher than TCB2014 (at 100 nM)” value in experiment [1] was not below 40%.

B4: AB20L3-1/N (bispecific antibody, human IgG1, kappa, lambda, L234A L235A)
heavy: EVQLVESGGGLVQPGGSLKLSCAASGFTFNTYAMNWVRQAPGKGLEWVGRIRSKYNNYATYYADSVKDRFTISRDDSKNTAYLQMNSLKTEDTAVYYCVRHGNFGNSYVSWFAYWGQGTLVTVSSASTKGPSVFPLAPSSKSTSGGTAALGCLVKDYFPEPVTVSWNSGALTSGVHTFPAVLQSSGLYSLSSVVTVPSSSLGTQTYICNVNHKPSNTKVDKRVEPKSCDKTHTCPPCPAPEAAGGPSVFLFPPKPKDTLMISRTPEVTCVVVDVSHEDPEVKFNWYVDGVEVHNAKTKPREEQYNSTYRVVSVLTVLHQDWLNGKEYKCKVSNKALAAPIEKTISKAKGQPREPQVYTLPPSREEMTKNQVSLTCLVKGFYPSDIAVEWESNGQPENNYKTTPPVLDSDGSFFLYSKLTVDKSRWQQGNVFSCSVMHEALHNHYTQKSLSLSPG
light 1: EIVLTQSPATLSLSPGERATLSCRASQSVNSNLNWYQQKPGQAPRLLIYHGSNRATGIPARFSGSGSGTDFTLTISSLEPEDFAVYYCQQFDYFRELNTFGQGTKVEIKRTVAAPSVFIFPPSDEQLKSGTASVVCLLNNFYPREAKVQWKVDNALQSGNSQESVTEQDSKDSTYSLSSTLTLSKADYEKHKVYACEVTHQGLSSPVTKSFNRGEC
light 2: QTVVTQEPSLTVSPGGTVTLTCRSSTGAVTTSNYANWFQQKPGQAPRGLIGGTNKRAPGTPARFSGSLLGGKAALTLSGAQPEDEAEYYCALWYKQRWVFGGGTKLTVLGQPKAAPSVTLFPPSSEELQANKATLVCLISDFYPGAVTVAWKADSSPVKAGVETTTPSKQSNNKYAASSYLSLTPEQWKSHRSYSCQVTHEGSTVEKTVAPTECS
notes: as for B1
For the molecule B4, the binding result with human CD3ε was “binds”. Moreover, in experiment [1], the “binding higher than TCB2014 (at 100 nM)” value was not below 40%.

For the origin of these results see US20230136228A1 (LAMKAP BIO ALPHA, published 2023).
